{"source": "patent US20140072613A1", "about": "“Compositions and Methods for Treating Cutaneous Scarring” (priority 2012, published 2014)", "type_in_all_cases": "biochemical", "key": {"266 human kinases [1]": {"target": "T1, 266 human kinases (Homo sapiens, UniProt Q12851)", "T1 sequence (Q12851 1-820)": "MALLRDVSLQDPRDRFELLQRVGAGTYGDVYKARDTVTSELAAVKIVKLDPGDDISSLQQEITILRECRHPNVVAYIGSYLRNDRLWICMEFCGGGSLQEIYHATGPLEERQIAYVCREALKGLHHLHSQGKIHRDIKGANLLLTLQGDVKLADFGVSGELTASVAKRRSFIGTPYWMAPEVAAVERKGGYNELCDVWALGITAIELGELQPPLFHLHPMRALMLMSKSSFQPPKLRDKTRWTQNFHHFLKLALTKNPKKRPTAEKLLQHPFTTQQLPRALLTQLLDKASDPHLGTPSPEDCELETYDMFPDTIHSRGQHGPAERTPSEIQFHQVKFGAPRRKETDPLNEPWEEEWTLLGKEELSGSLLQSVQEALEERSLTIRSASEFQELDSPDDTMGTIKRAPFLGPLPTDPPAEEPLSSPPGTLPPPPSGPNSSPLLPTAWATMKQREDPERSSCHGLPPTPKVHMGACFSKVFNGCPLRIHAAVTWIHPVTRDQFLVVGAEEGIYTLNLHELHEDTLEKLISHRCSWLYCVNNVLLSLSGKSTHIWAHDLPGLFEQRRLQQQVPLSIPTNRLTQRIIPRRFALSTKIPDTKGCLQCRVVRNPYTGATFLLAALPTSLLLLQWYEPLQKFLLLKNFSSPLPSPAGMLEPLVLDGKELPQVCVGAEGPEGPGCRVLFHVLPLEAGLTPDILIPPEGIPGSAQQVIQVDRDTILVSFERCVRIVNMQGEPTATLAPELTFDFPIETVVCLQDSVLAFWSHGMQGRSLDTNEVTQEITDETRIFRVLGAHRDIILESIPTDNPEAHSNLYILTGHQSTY", "test": "biochemical", "conditions": "GCK(h); 100 μM", "text": "(§1) Specifically, in these assays, a positively charged substrate is phosphorylated with a radiolabeled phosphate group from an ATP if the kinase is not inhibited by an inhibitor peptide. The positively charged substrate then is attracted to a negatively charged filter membrane, quantified with a scintillation counter, and compared to a 100% activity control."}, "266 human kinases [2]": {"target": "266 human kinases (Homo sapiens, UniProt P49841)", "sequence (P49841 whole entry)": "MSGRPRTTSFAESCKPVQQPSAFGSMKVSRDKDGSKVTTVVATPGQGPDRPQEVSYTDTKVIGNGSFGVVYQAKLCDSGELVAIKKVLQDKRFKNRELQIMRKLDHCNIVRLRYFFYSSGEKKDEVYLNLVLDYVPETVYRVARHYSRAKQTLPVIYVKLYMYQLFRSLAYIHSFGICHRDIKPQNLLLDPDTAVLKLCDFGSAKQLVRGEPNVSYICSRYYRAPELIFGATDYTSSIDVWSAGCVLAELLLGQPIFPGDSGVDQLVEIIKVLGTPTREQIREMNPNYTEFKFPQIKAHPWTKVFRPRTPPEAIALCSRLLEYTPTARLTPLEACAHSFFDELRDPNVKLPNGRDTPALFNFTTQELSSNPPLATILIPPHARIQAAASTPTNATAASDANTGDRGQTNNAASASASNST", "test": "biochemical", "conditions": "6SK3β(h); 100 μM", "text": "as §1"}, "266 human kinases [3]": {"target": "266 human kinases (Homo sapiens, UniProt P07949, V804L)", "test": "biochemical", "conditions": "Ret(V804L)(h); 100 μM", "text": "as §1"}, "266 human kinases [4]": {"target": "266 human kinases (Homo sapiens, UniProt P43405)", "test": "biochemical", "conditions": "Syk(h); 100 μM", "text": "as §1"}, "266 human kinases [5]": {"target": "266 human kinases (Homo sapiens, UniProt P53778)", "sequence (P53778 whole entry)": "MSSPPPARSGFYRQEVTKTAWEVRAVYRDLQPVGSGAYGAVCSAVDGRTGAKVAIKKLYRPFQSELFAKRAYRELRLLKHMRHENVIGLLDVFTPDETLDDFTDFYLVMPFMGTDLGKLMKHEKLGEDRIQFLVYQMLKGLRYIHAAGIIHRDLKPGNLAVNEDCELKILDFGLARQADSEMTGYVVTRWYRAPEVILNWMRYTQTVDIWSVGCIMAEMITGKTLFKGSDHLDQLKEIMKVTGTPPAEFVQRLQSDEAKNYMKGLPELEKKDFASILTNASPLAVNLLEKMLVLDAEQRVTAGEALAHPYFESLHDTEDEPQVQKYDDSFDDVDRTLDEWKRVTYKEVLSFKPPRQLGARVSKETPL", "test": "biochemical", "conditions": "SAPK3(h); 100 μM", "text": "as §1"}, "266 human kinases [6]": {"target": "266 human kinases (Homo sapiens, UniProt O43293)", "sequence (O43293 whole entry)": "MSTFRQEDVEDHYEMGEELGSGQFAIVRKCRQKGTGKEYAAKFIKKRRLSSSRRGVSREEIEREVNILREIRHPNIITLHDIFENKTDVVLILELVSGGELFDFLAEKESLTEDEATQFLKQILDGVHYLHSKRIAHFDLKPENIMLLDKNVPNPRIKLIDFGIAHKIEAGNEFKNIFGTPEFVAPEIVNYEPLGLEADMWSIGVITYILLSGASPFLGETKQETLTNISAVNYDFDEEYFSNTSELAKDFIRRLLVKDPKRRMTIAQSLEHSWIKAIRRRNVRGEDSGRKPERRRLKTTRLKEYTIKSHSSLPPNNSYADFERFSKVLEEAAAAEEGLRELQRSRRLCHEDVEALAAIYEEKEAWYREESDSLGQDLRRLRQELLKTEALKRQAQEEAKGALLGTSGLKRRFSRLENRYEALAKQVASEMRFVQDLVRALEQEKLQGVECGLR", "test": "biochemical", "conditions": "ZIPK(h); 100 μM", "text": "as §1"}, "266 human kinases [7]": {"target": "266 human kinases (Homo sapiens, UniProt P08581, Y1230C)", "test": "biochemical", "conditions": "Met(Y1248C)(h); 100 μM", "text": "as §1"}, "DRAK1 (h)": {"target": "T2, DRAK1 (h) (Homo sapiens, UniProt Q9UEE5)", "T2 sequence (Q9UEE5 1-414)": "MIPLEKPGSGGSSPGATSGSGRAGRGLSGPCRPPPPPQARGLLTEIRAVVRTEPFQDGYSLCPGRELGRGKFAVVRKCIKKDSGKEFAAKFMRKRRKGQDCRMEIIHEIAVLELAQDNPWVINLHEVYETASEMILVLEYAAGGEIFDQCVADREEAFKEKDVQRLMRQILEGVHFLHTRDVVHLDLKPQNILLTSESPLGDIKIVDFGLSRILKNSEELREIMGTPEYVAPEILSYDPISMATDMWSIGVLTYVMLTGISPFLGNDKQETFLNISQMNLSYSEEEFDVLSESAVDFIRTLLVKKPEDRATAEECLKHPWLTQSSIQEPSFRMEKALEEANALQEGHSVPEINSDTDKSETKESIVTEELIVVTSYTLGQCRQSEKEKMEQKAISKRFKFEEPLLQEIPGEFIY", "test": "Millipore radiometric kinase assay (IC50 Profiler Express)", "conditions": "DRAK1(h); 100 μM", "text": "as §1"}, "DMPK (h)": {"target": "T3, DMPK (h) (Homo sapiens, UniProt Q09013)", "T3 sequence (Q09013 1-629)": "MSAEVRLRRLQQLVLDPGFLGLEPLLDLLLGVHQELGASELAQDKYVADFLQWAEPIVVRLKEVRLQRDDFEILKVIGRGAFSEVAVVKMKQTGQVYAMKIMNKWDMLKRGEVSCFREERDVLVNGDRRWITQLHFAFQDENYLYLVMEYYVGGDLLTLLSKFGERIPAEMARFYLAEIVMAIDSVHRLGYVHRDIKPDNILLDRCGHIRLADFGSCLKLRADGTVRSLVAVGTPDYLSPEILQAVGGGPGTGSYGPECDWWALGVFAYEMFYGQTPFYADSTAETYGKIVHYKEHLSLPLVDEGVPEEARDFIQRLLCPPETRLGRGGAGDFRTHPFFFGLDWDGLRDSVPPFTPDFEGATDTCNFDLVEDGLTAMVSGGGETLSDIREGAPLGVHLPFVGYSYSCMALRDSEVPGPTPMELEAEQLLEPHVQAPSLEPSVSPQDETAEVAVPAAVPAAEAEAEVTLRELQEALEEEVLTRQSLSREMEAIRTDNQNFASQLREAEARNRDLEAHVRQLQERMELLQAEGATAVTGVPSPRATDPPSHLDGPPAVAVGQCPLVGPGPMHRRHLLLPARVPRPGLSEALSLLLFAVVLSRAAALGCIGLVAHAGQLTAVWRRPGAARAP", "test": "Millipore radiometric kinase assay (IC50 Profiler Express)", "conditions": "DMPK(h); 100 μM", "text": "as §1"}, "EGFR (L861Q) (h)": {"target": "EGFR (L861Q) (h) (Homo sapiens, UniProt P00533, L861Q)", "test": "Millipore radiometric kinase assay (IC50 Profiler Express)", "conditions": "EGFR(L861Q)(h); 100 μM", "text": "as §1"}, "LOK (h)": {"target": "LOK (h) (Homo sapiens, UniProt O94804)", "sequence (O94804 whole entry)": "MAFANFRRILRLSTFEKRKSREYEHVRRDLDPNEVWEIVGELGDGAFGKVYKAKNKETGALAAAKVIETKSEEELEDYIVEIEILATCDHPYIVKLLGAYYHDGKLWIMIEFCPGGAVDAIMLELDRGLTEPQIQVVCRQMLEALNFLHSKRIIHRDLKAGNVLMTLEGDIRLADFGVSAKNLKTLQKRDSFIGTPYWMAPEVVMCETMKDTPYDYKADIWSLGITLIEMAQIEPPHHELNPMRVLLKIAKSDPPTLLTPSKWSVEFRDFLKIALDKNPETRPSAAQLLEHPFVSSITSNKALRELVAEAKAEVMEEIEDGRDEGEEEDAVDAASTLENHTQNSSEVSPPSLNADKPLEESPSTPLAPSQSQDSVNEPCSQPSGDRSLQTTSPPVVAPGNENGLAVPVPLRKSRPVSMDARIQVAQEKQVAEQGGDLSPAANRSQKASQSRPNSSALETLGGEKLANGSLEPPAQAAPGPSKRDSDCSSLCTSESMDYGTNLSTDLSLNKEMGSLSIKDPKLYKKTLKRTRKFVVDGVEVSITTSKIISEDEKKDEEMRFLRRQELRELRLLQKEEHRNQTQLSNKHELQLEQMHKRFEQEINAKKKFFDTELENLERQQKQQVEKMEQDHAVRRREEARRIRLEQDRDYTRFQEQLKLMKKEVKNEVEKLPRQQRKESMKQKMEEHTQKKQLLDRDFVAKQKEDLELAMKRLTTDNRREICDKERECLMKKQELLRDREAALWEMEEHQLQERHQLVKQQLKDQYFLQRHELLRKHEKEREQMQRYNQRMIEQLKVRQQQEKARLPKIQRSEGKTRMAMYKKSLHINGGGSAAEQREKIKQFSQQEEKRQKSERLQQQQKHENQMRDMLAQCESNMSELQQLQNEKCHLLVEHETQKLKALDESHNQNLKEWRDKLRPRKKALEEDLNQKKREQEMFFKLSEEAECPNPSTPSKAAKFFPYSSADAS", "test": "Millipore radiometric kinase assay (IC50 Profiler Express)", "conditions": "LOK(h); 100 μM", "text": "as §1"}}}
{"sequence": "HRRIKAWLKKIKALARQLGVAA (mammal) [MMI-0500]", "values": [{"measurement": "% activity", "setting": "266 human kinases [1]", "value": 30, "unit": "%"}, {"measurement": "% activity", "setting": "266 human kinases [2]", "value": 238, "unit": "%"}, {"measurement": "% activity", "setting": "266 human kinases [3]", "value": 20, "unit": "%"}, {"measurement": "% activity", "setting": "266 human kinases [4]", "value": 5, "unit": "%"}, {"measurement": "% activity", "setting": "266 human kinases [5]", "value": 24, "unit": "%"}, {"measurement": "% activity", "setting": "266 human kinases [6]", "value": 1, "unit": "%"}, {"measurement": "% activity", "setting": "266 human kinases [7]", "value": 73, "unit": "%"}, {"measurement": "% activity", "setting": "DRAK1 (h)", "value": 8, "unit": "%"}, {"measurement": "% activity", "setting": "DMPK (h)", "value": 12, "unit": "%"}, {"measurement": "% activity", "setting": "EGFR (L861Q) (h)", "value": 15, "unit": "%"}, {"measurement": "% activity", "setting": "LOK (h)", "value": 7, "unit": "%"}]}
{"sequence": "YARAAARQARAKALNRQLGVA (mammal) [MMI-0200]", "values": [{"measurement": "% activity", "setting": "266 human kinases [1]", "value": 99, "unit": "%"}, {"measurement": "% activity", "setting": "266 human kinases [2]", "value": 132, "unit": "%"}, {"measurement": "% activity", "setting": "266 human kinases [3]", "value": 100, "unit": "%"}, {"measurement": "% activity", "setting": "266 human kinases [4]", "value": 36, "unit": "%"}, {"measurement": "% activity", "setting": "266 human kinases [5]", "value": 97, "unit": "%"}, {"measurement": "% activity", "setting": "266 human kinases [6]", "value": 67, "unit": "%"}, {"measurement": "% activity", "setting": "266 human kinases [7]", "value": 141, "unit": "%"}, {"measurement": "% activity", "setting": "DRAK1 (h)", "value": 34, "unit": "%"}, {"measurement": "% activity", "setting": "DMPK (h)", "value": 66, "unit": "%"}, {"measurement": "% activity", "setting": "EGFR (L861Q) (h)", "value": 74, "unit": "%"}, {"measurement": "% activity", "setting": "LOK (h)", "value": 67, "unit": "%"}]}
